Assay results reported in paper PMC3261180.

Tests used:
Glu69 = Glu69 (UniProt position 70, EGTSVELGTLL); assay: NMR
Glu47 = Glu47 (UniProt position 48, KPDIKEDIEYY); assay: NMR
Asp2 = Asp2 (UniProt position 3, ---MVDFAFEL); assay: NMR
Asp44 = Asp44 (UniProt position 45, RNAKPDIKEDI); assay: NMR
Asp12 = Asp12 (UniProt position 13, LKKAQDTGKIV); assay: NMR
Asp87 = Asp87 (UniProt position 88, ALAVVDPGESR); assay: NMR
Asp48 = Asp48 (UniProt position 49, PDIKEDIEYYA); assay: NMR
Glu90 = Glu90 (UniProt position 91, VVDPGESRILA); assay: NMR
Glu62 = Glu62 (UniProt position 63, GIPVYEFEGTS); assay: NMR
Glu6 = Glu6 (UniProt position 7, VDFAFELKKAQ); assay: NMR
Glu100 = Glu100 (UniProt position 101, ALGGKE-----); assay: NMR
Glu50 = Glu50 (UniProt position 51, IKEDIEYYAKL); assay: NMR
Glu64 = Glu64 (UniProt position 65, PVYEFEGTSVE); assay: NMR
[1] = target: Asp3 (position 3, ---GGDGG---); assay: potentiometry
[2] = target: Glu3 (position 3, ---GGEGG---); assay: potentiometry
[3] = 298 K, 5.4 M guanidine-HCl, not stated for the denatured samples, unfolded (guanidine-denatured)
[4] = 298 K, low ionic strength, 10 mM sodium citrate/phosphate, no added salt stated, folded (native)
[5] = 333 K, 5.4 M guanidine-HCl, not stated for the denatured samples, unfolded (guanidine-denatured)
[6] = 333 K, low ionic strength, 10 mM sodium citrate/phosphate, no added salt stated, folded (native)
[7] = 298 K, 5.4 M guanidine hydrochloride, free peptide in 5.4 M GdnHCl
[8] = 298 K, no added salt (peptide in nano-pure water), free peptide, no denaturant
[9] = 333 K, 5.4 M guanidine hydrochloride, free peptide in 5.4 M GdnHCl
[10] = 333 K, no added salt (peptide in nano-pure water), free peptide, no denaturant

## 50S ribosomal protein L30e, 5R->K variant (L30e*) (Thermococcus celer; R8K;R21K;R42K;R54K;R76K)
Glu69; [3]
  pKa: 4.19±0.02
Glu69; [4]
  pKa: 3.79±0.03
Glu69; [5]
  pKa: 4.01±0.03
Glu69; [6]
  pKa: 3.82±0.03
Glu47; [3]
  pKa: 4.17±0.02
Glu47; [4]
  pKa: 4.53±0.04
Glu47; [5]
  pKa: 4.00±0.02
Glu47; [6]
  pKa: 4.56±0.04
Asp2; [3]
  pKa: 3.62±0.01
Asp2; [4]
  pKa: 3.13±0.04
Asp2; [5]
  pKa: 3.53±0.02
Asp2; [6]
  pKa: 3.09±0.05
Asp44; [3]
  pKa: 3.62±0.01
Asp44; [4]
  pKa: 3.08±0.04
Asp44; [5]
  pKa: 3.52±0.02
Asp44; [6]
  pKa: 2.88±0.04
Asp12; [3]
  pKa: 3.56±0.02
Asp12; [4]
  pKa: 3.69±0.02
Asp12; [5]
  pKa: 3.46±0.02
Asp12; [6]
  pKa: 3.69±0.03
Asp87; [3]
  pKa: 3.54±0.02
Asp87; [4]
  pKa: 2.50±0.02
Asp87; [5]
  pKa: 3.47±0.02
Asp87; [6]
  pKa: 2.49±0.03
Asp48; [3]
  pKa: 3.56±0.02
Asp48; [4]
  pKa: 4.14±0.04
Asp48; [5]
  pKa: 3.46±0.02
Asp48; [6]
  pKa: 4.24±0.04
Glu90; [3]
  pKa: 4.16±0.02
Glu90; [4]
  pKa: 4.17±0.02
Glu90; [5]
  pKa: 4.02±0.03
Glu90; [6]
  pKa: 4.24±0.02
Glu62; [3]
  pKa: 4.19±0.02
Glu62; [4]
  pKa: 3.20±0.06
Glu62; [5]
  pKa: 4.03±0.02
Glu62; [6]
  pKa: 3.30±0.06
Glu6; [3]
  pKa: 4.17±0.02
Glu6; [4]
  pKa: 2.34±0.03
Glu6; [5]
  pKa: 4.00±0.02
Glu6; [6]
  pKa: 2.38±0.04
Glu100; [3]
  pKa: 4.19±0.02
Glu100; [4]
  pKa: 4.31±0.03
Glu100; [5]
  pKa: 4.06±0.02
Glu100; [6]
  pKa: 4.38±0.05
Glu50; [3]
  pKa: 4.16±0.02
Glu50; [4]
  pKa: 5.10±0.07
Glu50; [5]
  pKa: 4.02±0.03
Glu50; [6]
  pKa: 5.00±0.06
Glu64; [3]
  pKa: 4.17±0.02
Glu64; [4]
  pKa: 4.10±0.06
Glu64; [5]
  pKa: 4.00±0.02
Glu64; [6]
  pKa: 4.06±0.07

B1: Model pentapeptide Ac-GGDGG-NH2 (synthetic) (peptide)
chain: GGDGG
[1]; [7]
  pKa: 3.70±0.01
[1]; [8]
  pKa: 3.69±0.03
[1]; [9]
  pKa: 3.64±0.02
[1]; [10]
  pKa: 3.61±0.02

B2: Model pentapeptide Ac-GGEGG-NH2 (synthetic) (peptide)
chain: GGEGG
[2]; [7]
  pKa: 4.18±0.04
[2]; [8]
  pKa: 4.17±0.03
[2]; [9]
  pKa: 4.10±0.02
[2]; [10]
  pKa: 4.10±0.01
